The values that follow come from article PMC8443744.

The test addresses senataxin (SETX), endogenous (human (endogenous in MRC-5)) (UniProt Q7Z333). The test can be described thus: proximity ligation; Duolink PLA in methanol-fixed MRC-5 cells with antibodies against the two endogenous proteins; cells mock treated (DMSO), 25 uM CPT for 10 min, or 50 uM alpha-amanitin overnight followed by CPT.
Sequence of UniProt Q7Z333 (Q7Z333 whole entry): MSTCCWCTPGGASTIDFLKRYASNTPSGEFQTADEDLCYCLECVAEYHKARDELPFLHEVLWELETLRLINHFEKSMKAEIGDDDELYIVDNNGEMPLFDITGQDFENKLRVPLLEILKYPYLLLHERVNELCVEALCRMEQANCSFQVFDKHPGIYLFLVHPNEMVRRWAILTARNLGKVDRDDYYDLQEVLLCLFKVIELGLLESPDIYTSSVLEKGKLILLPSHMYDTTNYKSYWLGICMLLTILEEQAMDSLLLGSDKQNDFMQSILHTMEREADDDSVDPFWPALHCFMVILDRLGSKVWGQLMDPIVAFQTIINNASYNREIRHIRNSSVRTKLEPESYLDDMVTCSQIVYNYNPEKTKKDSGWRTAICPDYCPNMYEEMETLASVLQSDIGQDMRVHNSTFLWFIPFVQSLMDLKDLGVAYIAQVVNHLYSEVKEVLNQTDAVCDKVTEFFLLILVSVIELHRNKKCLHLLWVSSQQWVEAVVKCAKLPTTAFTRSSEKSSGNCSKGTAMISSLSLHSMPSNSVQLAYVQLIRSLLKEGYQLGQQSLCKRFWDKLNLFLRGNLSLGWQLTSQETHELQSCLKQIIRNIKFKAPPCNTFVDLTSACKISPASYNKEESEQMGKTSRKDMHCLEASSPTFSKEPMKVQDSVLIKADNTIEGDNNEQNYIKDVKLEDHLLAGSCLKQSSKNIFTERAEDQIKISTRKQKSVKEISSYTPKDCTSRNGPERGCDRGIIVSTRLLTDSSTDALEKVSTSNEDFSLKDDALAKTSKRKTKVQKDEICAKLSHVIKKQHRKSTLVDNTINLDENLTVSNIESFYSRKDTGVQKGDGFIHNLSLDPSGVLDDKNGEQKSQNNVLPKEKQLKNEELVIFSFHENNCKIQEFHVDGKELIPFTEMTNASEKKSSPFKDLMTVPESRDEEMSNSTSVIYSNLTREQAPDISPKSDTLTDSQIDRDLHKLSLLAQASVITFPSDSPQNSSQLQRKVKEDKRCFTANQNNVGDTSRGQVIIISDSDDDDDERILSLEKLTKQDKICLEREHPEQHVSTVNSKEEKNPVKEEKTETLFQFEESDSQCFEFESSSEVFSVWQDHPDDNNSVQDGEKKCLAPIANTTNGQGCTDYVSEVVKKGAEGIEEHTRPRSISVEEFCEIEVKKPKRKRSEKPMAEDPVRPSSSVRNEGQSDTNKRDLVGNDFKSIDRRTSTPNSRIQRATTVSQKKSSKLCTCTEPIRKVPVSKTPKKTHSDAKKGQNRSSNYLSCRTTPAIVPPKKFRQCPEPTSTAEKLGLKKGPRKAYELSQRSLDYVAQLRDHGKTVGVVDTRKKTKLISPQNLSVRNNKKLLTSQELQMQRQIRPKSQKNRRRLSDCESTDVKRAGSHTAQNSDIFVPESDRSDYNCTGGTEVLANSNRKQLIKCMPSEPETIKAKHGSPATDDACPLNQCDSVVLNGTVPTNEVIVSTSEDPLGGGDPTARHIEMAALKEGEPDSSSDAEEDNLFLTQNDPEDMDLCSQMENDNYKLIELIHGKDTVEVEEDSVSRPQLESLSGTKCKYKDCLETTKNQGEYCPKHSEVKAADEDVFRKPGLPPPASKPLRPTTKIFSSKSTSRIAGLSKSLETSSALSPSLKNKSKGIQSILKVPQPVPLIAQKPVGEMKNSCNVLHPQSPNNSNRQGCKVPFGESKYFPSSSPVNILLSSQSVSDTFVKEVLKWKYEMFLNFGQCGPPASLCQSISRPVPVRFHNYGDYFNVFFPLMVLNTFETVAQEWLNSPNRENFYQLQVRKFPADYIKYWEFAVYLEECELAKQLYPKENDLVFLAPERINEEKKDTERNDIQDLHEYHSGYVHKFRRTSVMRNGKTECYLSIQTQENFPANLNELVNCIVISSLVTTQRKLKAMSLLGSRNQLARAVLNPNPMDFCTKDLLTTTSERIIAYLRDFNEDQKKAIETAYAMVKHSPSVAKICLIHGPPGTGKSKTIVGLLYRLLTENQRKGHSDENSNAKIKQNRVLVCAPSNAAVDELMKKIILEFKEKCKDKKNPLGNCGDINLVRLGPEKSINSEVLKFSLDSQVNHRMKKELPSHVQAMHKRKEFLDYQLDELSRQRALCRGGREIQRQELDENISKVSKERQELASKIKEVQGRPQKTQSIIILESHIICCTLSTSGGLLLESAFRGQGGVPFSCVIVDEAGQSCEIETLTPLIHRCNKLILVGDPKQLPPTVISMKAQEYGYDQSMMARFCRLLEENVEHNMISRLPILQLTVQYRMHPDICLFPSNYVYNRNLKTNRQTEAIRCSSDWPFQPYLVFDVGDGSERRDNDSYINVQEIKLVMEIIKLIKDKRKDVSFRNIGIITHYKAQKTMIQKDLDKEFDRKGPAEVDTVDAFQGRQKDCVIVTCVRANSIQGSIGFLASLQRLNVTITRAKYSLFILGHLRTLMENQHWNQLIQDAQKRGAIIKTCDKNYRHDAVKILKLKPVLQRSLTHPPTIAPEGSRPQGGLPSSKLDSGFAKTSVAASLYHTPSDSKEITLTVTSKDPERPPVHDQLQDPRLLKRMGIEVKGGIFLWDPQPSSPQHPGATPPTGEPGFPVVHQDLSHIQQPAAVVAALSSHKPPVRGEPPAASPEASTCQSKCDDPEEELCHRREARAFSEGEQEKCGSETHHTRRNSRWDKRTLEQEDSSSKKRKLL

“ubiquitin specific peptidase 11 (USP11), endogenous (from UniProt P51784 1-963)” displayed a fold increase in PLA signal after CPT (against unperturbed cells) of 5 fold.
